B1: Emerin (Homo sapiens), P50402 (parent)
chain: MDNYADLSDTELTTLLRRYNIPHGPVVGSTRRLYEKKIFEYETQRRRLSPPSSSAASSYSFSDLNSTRGDADMYDLPKKEDALLYQSKGYNDDYYEESYFTTRTYGEPESAGPSRAVRQSVTSFPDADAFHHQVHDDDLLSSSEEECKDRERPMYGRDSAYQSITHYRPVSASRSSLDLSYYPTSSSTSFMSSSSSSSSWLTRRAIRPENRAPGAGLGQDRQVPLWGQLLLFLVFVIVLFFIYHFMQAEEGNPF
partner: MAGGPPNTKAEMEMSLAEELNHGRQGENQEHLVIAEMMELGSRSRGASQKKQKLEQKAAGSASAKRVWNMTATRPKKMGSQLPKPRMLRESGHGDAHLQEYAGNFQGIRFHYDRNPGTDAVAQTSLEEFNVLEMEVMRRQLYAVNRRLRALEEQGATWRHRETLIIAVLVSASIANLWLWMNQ
B2: Mothers against decapentaplegic homolog 3 (Homo sapiens), P84022 (parent)
chain: MSSILPFTPPIVKRLLGWKKGEQNGQEEKWCEKAVKSLVKKLKKTGQLDELEKAITTQNVNTKCITIPRSLDGRLQVSHRKGLPHVIYCRLWRWPDLHSHHELRAMELCEFAFNMKKDEVCVNPYHYQRVETPVLPPVLVPRHTEIPAEFPPLDDYSHSIPENTNFPAGIEPQSNIPETPPPGYLSEDGETSDHQMNHSMDAGSPNLSPNPMSPAHNNLDLQPVTYCEPAFWCSISYYELNQRVGETFHASQPSMTVDGFTDPSNSERFCLGLLSNVNRNAAVELTRRHIGRGVRLYYIGGEVFAECLSDSAIFVQSPNCNQRYGWHPATVCKIPPGCNLKIFNNQEFAALLAQSVNQGFEAVYQLTRMCTIRMSFVKGWGAEYRRQTVTSTPCWIELHLNGPLQWLDKVLTQMGSPSIRCSSVS
partner: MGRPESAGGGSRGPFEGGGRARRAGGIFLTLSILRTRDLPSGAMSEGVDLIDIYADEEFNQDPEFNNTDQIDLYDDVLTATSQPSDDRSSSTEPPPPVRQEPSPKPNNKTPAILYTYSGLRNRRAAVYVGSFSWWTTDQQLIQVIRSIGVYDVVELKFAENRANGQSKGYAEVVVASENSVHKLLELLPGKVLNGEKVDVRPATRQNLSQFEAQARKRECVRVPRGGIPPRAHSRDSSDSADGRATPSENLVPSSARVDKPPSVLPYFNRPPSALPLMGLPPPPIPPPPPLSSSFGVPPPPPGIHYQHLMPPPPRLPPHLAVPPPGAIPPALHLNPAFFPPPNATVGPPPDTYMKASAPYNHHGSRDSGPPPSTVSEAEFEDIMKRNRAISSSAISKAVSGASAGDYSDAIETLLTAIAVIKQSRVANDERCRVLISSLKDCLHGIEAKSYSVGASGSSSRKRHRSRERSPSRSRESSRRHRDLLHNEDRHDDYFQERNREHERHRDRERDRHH
B3: Hypoxanthine-guanine phosphoribosyltransferase (Homo sapiens), P00492 (parent)
chain: MATRSPGVVISDDEPGYDLDLFCIPNHYAEDLERVFIPHGLIMDRTERLARDVMKEMGGHHIVALCVLKGGYKFFADLLDYIKALNRNSDRSIPMTVDFIRLKSYCNDQSTGDIKVIGGDDLSTLTGKNVLIVEDIIDTGKTMQTLLSLVRQYNPKMVKVASLLVKRTPRSVGYKPDFVGFEIPDKFVVGYALDYNEYFRDLNHVCVISETGKAKYKA
partner: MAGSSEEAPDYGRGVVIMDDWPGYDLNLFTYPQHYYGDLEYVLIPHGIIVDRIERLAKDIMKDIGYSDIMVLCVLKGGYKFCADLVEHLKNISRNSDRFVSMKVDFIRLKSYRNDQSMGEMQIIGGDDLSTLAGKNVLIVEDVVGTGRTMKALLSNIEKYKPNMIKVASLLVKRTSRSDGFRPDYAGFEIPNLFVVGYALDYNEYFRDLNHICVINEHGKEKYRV
B4: Adiponectin (Homo sapiens), Q15848 (parent)
chain: MLLLGAVLLLLALPGHDQETTTQGPGVLLPLPKGACTGWMAGIPGHPGHNGAPGRDGRDGTPGEKGEKGDPGLIGPKGDIGETGVPGAEGPRGFPGIQGRKGEPGEGAYVYRSAFSVGLETYVTIPNMPIRFTKIFYNQQNHYDGSTGKFHCNIPGLYYFAYHITVYMKDVKVSLFKKDKAMLFTYDQYQENNVDQASGSVLLHLEVGDQVWLQVYGEGERNGLYADNDNDSTFTGFLLYHDTN
B5: U4/U6 small nuclear ribonucleoprotein Prp31 (Homo sapiens), Q8WWY3 (parent)
chain: MSLADELLADLEEAAEEEEGGSYGEEEEEPAIEDVQEETQLDLSGDSVKTIAKLWDSKMFAEIMMKIEEYISKQAKASEVMGPVEAAPEYRVIVDANNLTVEIENELNIIHKFIRDKYSKRFPELESLVPNALDYIRTVKELGNSLDKCKNNENLQQILTNATIMVVSVTASTTQGQQLSEEELERLEEACDMALELNASKHRIYEYVESRMSFIAPNLSIIIGASTAAKIMGVAGGLTNLSKMPACNIMLLGAQRKTLSGFSSTSVLPHTGYIYHSDIVQSLPPDLRRKAARLVAAKCTLAARVDSFHESTEGKVGYELKDEIERKFDKWQEPPPVKQVKPLPAPLDGQRKKRGGRRYRKMKERLGLTEIRKQANRMSFGEIEEDAYQEDLGFSLGHLGKSGSGRVRQTQVNEATKARISKTLQRTLQKQSVVYGGKSTIRDRSSGTASSVAFTPLQGLEIVNPQAAEKKVAEANQKYFSSMAEFLKVKGEKSGLMST
partner: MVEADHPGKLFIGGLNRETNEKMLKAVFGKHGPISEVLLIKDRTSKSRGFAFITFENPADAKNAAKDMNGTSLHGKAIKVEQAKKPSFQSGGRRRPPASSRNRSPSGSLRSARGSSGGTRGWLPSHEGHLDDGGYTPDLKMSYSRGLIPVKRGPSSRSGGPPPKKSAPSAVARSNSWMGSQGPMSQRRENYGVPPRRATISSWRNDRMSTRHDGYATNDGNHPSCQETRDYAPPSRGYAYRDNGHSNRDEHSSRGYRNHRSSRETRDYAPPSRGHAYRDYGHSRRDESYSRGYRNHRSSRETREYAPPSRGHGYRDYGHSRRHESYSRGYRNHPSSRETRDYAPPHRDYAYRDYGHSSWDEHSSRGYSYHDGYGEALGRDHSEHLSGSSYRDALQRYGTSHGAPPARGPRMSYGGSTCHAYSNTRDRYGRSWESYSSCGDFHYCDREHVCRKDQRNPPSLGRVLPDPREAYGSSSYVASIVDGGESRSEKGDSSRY
B6: DNA mismatch repair protein Mlh1 (Homo sapiens), P40692 (parent)
chain: MSFVAGVIRRLDETVVNRIAAGEVIQRPANAIKEMIENCLDAKSTSIQVIVKEGGLKLIQIQDNGTGIRKEDLDIVCERFTTSKLQSFEDLASISTYGFRGEALASISHVAHVTITTKTADGKCAYRASYSDGKLKAPPKPCAGNQGTQITVEDLFYNIATRRKALKNPSEEYGKILEVVGRYSVHNAGISFSVKKQGETVADVRTLPNASTVDNIRSIFGNAVSRELIEIGCEDKTLAFKMNGYISNANYSVKKCIFLLFINHRLVESTSLRKAIETVYAAYLPKNTHPFLYLSLEISPQNVDVNVHPTKHEVHFLHEESILERVQQHIESKLLGSNSSRMYFTQTLLPGLAGPSGEMVKSTTSLTSSSTSGSSDKVYAHQMVRTDSREQKLDAFLQPLSKPLSSQPQAIVTEDKTDISSGRARQQDEEMLELPAPAEVAAKNQSLEGDTTKGTSEMSEKRGPTSSNPRKRHREDSDVEMVEDDSRKEMTAACTPRRRIINLTSVLSLQEEINEQGHEVLREMLHNHSFVGCVNPQWALAQHQTKLYLLNTTKLSEELFYQILIYDFANFGVLRLSEPAPLFDLAMLALDSPESGWTEEDGPKEGLAEYIVEFLKKKAEMLADYFSLEIDEEGNLIGLPLLIDNYVPPLEGLPIFILRLATEVNWDEEKECFESLSKECAMFYSIRKQYISEESTLSGQQSEVPGSIPNSWKWTVEHIVYKALRSHILPPKHFTEDGNILQLANLPDLYKVFERC
partner: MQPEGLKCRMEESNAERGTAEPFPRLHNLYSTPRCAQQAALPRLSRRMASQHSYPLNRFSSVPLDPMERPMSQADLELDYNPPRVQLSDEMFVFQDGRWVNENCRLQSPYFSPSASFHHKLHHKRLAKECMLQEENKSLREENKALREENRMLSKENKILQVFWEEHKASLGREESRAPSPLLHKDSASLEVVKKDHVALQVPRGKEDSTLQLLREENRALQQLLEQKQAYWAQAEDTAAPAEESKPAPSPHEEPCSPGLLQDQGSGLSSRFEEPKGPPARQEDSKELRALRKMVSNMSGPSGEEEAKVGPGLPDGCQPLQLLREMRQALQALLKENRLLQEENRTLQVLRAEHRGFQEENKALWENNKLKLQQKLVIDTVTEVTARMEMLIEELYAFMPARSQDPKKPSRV

Variants of: B1
Conditions: with fate1_human FATE1, Q969F0
In the case of D72V, the “effect of a mutation on the interaction” value is reported as “with no effect”.

Variants of: B2
Conditions: with CPSF7, Q8N684-3
In the case of N197I, the “effect of a mutation on the interaction” value is reported as “with no effect”. For I170V, the “effect of a mutation on the interaction” value was “with no effect”.

Variants of: B3
Conditions: with prdc1_human PRTFDC1, Q9NRG1
For D194H, the “effect of a mutation on the interaction” value was “disrupting interaction strength”.

Variants of: B4
Conditions: with bni3l_human BNIP3L
Y111H was tested, and the “effect of a mutation on the interaction” value was “with no effect”. In the case of I164T, the “effect of a mutation on the interaction” value is reported as “with no effect”.

Variants of: B4
Conditions: with sgta_human SGTA
Y111H was tested, and the “effect of a mutation on the interaction” value was “with no effect”. With I164T the “effect of a mutation on the interaction” value was “with no effect”.

Variants of: B5
Conditions: with rby1f_human RBMY1F
In the case of L107V, the “effect of a mutation on the interaction” value is reported as “with no effect”.

Variants of: B6
Conditions: with CBY2, Q8NA61-2
G244D was tested, and the “effect of a mutation on the interaction” value was “with no effect”. With R472I the “effect of a mutation on the interaction” value was “with no effect”.

Source: IntAct's records for PubMed 25910212
